Patent US20210388087A1 (Chugai, published 2021)

Columns and labels:
[1] = biological target: T1, human CD137-Fc (human, biotin-labeled); assay: bead ELISA on biotin-human CD137-Fc, 0 pmol free CD3e peptide
T1 construct: if 90 already holds the Fc, drop the second piece; also called biotin-labeled human CD137 fused to human IgG1 Fc fragment; biotin-human CD137-Fc; not shown: human IgG1 Fc fragment

[2] = biological target: T1, human CD137-Fc; assay: bead ELISA on biotin-human CD137-Fc, 125 vs 0 pmol free CD3e peptide;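 further: target captured on streptavidin-coated magnetic beads, signal read as fluorescence 2 min after adding APS-5 substrate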
[3] = biological target: T1, human CD137-Fc; assay: bead ELISA on biotin-human CD137-Fc with 125 pmol/well free CD3e peptide as competitor;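 further: Streptavidin-coated magnetic beads in blocking buffer as the capture surface, well signal read as fluorescence 2 min after adding APS-5 substrate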

Row | ELISA signal [1] | Signal decrease [2] [%] | ELISA signal [3] | Binder
1 | 25700 | 92.5 | 1940 | dBBDu167 (antibody, V domains shown, Human IgG1; light chain GLS3000 (kappa)) VH: QVQLVESGGGLVQPGRSLRLSCAASGFTFSNAWMHWVRQAPGKGLEWVAQIKDKGNLYAAYYAPSVKGRFTISRDDSKNSIYLQMNSLKTEDTAVYYCHYVHYASAGGGLPGFGVDAWGQGTTVTVSS VL: DIVMTQSPLSLPVTPGEPASISCRSSQSLVHSNRNTYLHWYQQKPGQAPRLLIYKVSNRFSGVPDRFSGSGSGTDFTLKISRVEAEDVGVYYCGQGTQVPYTFGQGTKLEIK
2 | 34000 | 93 | 2370 | dBBDu183 (antibody, V domains shown, Human IgG1; light chain GLS3000 (kappa), before light chain maturation) VH: QVQLVESGGGLVQPGRSLRLSCAASGFTFSNAWMHWVRQAPGKGLEWVAQIKDKGNAYAAYYAPSVKGRFTISRDDSKNSIYLQMNSLKTEDTAVYYCHYVHYASASTVLPAFGVDAWGQGTTVTVSS VL: DIVMTQSPLSLPVTPGEPASISCRSSQSLVHSNRNTYLHWYQQKPGQAPRLLIYKVSNRFSGVPDRFSGSGSGTDFTLKISRVEAEDVGVYYCGQGTQVPYTFGQGTKLEIK
3 | 6540 | 68.8 | 2040 | dBBDu173 (antibody, V domains shown, Human IgG1; light chain GLS3000 (kappa)) VH: QVQLVESGGGLVQPGRSLRLSCAASGFTFSNAWMHWVRQAPGKGLEWVAQIKDKGNLYAAYYAPSVKGRFTISRDDSKNSIYLQMNSLKTEDTAVYYCHYVHYASAGGGLSAYGVDAWGQGTTVTVSS VL: DIVMTQSPLSLPVTPGEPASISCRSSQSLVHSNRNTYLHWYQQKPGQAPRLLIYKVSNRFSGVPDRFSGSGSGTDFTLKISRVEAEDVGVYYCGQGTQVPYTFGQGTKLEIK
4 | 61000 | 95.7 | 2620 | dBBDu179 (antibody, V domains shown, Human IgG1; light chain GLS3000 (kappa)) VH: QVQLVESGGGLVQPGRSLRLSCAASGFTFSNAWMHWVRQAPGKGLEWVAQIKDRSNQYATYYAPSVKGRFTISRDDSKNSIYLQMNSLKTEDTAVYYCHYVHYASASTVLPAFGVDAWGQGTTVTVSS VL: DIVMTQSPLSLPVTPGEPASISCRSSQSLVHSNRNTYLHWYQQKPGQAPRLLIYKVSNRFSGVPDRFSGSGSGTDFTLKISRVEAEDVGVYYCGQGTQVPYTFGQGTKLEIK
5 | 27400 | 92 | 2190 | dBBDu189 (antibody, V domains shown, Human IgG1; light chain GLS3000 (kappa)) VH: QVQLVESGGGLVQPGRSLRLSCAASGFTFSNAWMHWVRQAPGKGLEWIAQIKDRSNQYATYYAPSVKGRFTISRDDSKNSIYLQMNSLKTEDTAVYYCHYVHYAQASSLLPSFGVDAWGQGTTVTVSS VL: DIVMTQSPLSLPVTPGEPASISCRSSQSLVHSNRNTYLHWYQQKPGQAPRLLIYKVSNRFSGVPDRFSGSGSGTDFTLKISRVEAEDVGVYYCGQGTQVPYTFGQGTKLEIK
6 | 18200 | 87.5 | 2280 | dBBDu193 (antibody, V domains shown, Human IgG1; light chain GLS3000 (kappa)) VH: QVQLVESGGGLVQPGRSLRLSCAASGFTFSNAWMHWVRQAPGKGLEWVAQIKDRSNQYATYYAPSVKGRFTISRDDSKNSIYLQMNSLKTEDTAVYYCHYVHYSAASTLLPSFGVDAWGQGTTVTVSS VL: DIVMTQSPLSLPVTPGEPASISCRSSQSLVHSNRNTYLHWYQQKPGQAPRLLIYKVSNRFSGVPDRFSGSGSGTDFTLKISRVEAEDVGVYYCGQGTQVPYTFGQGTKLEIK
7 | 34800 | 92.8 | 2500 | dBBDu186 (antibody, V domains shown, Human IgG1; light chain GLS3000 (kappa)) VH: QVQLVESGGGLVQPGRSLRLSCAASGFTFSNAWMHWVRQAPGKGLEWVAQIKDRSNQYATYYAPSVKGRFTISRDDSKNSIYLQMNSLKTEDTAVYYCHYVHYAQASTVLPAFGVDAWGQGTTVTVSS VL: DIVMTQSPLSLPVTPGEPASISCRSSQSLVHSNRNTYLHWYQQKPGQAPRLLIYKVSNRFSGVPDRFSGSGSGTDFTLKISRVEAEDVGVYYCGQGTQVPYTFGQGTKLEIK
